Source: article doi:10.1101/2022.06.19.496723

Target: NnlA (N-nitroglycine lyase) from Variovorax sp. strain JS1663, tag-free after TEV cleavage (Variovorax sp. strain JS1663)
Test: SEC

stoichiometry N: 2
Substance: NnlA (N-nitroglycine lyase) from Variovorax sp. strain JS1663, tag-free after TEV cleavage (enzyme)
